Laboratory results as given in patent US20250027068.
Where a chain is given by its changes, count along the chain named.

B1: PRT-643 (protein)
chain: MQITSVWTKGVTPLTPEQFRYNNEDVIHAPYLAHQGWYDITKAFDGKDNLLCGAATAGNMLHWWFDQNKTEIEAYLSKHPEKQKIIFNNQELFDLKAAIDTKDSQTNSQLFNYFRDKAFPNLSARQLGVMPDLVLDMFINGYYLNVFKTQSTDVNRPYQDKDKRGGIFDAVFTRGDQTTLLTARHDLKNKGLNDISTIIKQELTEGRALALSHTYANVSISHVINLWGADFNAEGNLEAIYVTDSDANASIGMKKYKVGYNKDGRVAISAYKIEGENIGAQVLGLFTLSSGKDIWQKLSLEHHHHHH
B2: PRT-646 (protein)
chain: MQITSVWTKGVTPLTPEQFRYNNEDVIHAPYLAHQGWYDITKAFDGKDNLLCGAATAGNMLHWWFDQNKTEIEAYLSKHPEKQKIIFNNQELFDLKAAIDTKDSQTNSQLFNYFRDKAFPNLSARQLGVMPDLVLDMFINGYYLNVFKTQSTDVNRPYQDKDKRGGIFDAVFTRGDQTTLLTETTDLYGKGLNDISTIIKQELTEGRALALSHTYANVSISHVINLWGADFNAEGNLEAIYVTDSDANASIGMKKYFVGINAHGHVAISAKKIEGENIGAQVLGLFTLSSGKDIWQKLSLEHHHHHH
B3: PRT-658 (protein)
chain: B2 chain with K96R, A97K, D100N, Q109A, E183A, T184R, T185H, Y188K, G189N
B4: PRT-609 (protein)
chain: MQITSVWTKGVTPLTPEQFRYNNEDVIHAPYLAHQGWYDITKAFDRGDNLLCGAATAGNMLHWWFDQNKTEIEAYLSKHPEKQKIIFNNQELFDLKAAIDTKDSQTNSQLFNYFRDKAFPNLSARQGGVMPDLVLDMFINGYYLNVFKTQSTDVNRPYQDKDKRGGIFDAVFTRGDQTTLLTARHDLKNKGLNDISTIIKQELTEGRALALSHTYANVSISHVINLWGADFNAEGNLEAIYVTDSDADEKIGMKKYFVGINAHGHVAISAKKIEGENIGAQVLGLFTLSSGKDIWQKLSLEHHHHHH
B5: PRT-661 (protein)
chain: B1 chain with H34N, A43T, A97K, A247S, K257F, Y260I, K262A, D263A, R265H, Y271K
B6: PRT-686 (protein)
chain: MQITSVWTKGVTPLTPEQFTYNNEDVIHAPYIANQGWYDITKTFNGKDNLLCGAATAGNMLHWWFDQNKTEIENYLKKHPEKQKIIFNNQELFDLRKAINTKDSQTNSALFNYFRDKAFPNLSARQLGVMPDLVLDMFINGYYLNVFKTQSTDVNRPYQTKDKRGGIFDHVFTRGDQSTLLTARHDLKNKTLNEISDIIKQELTEGKALALSHTYANVSISHVINLWGADFNAEGNLEAIYVTDSDANASIGMKKYFVGVNSHGKVAISAKKIEDENIGAQVLGLFTLSSGQDIWEQLSLEHHHHHH

Each protein was assayed against pooled human IgG (human IgG1, 2, 3 and 4).
B1 showed an Enzyme Activity Endpoint Assay (purified): Fab′2 of 664 ng/µL, an Enzyme Activity Endpoint Assay (purified): Fc of 409 ng/µL and an Enzyme Activity Endpoint Assay (purified): IgG of 33 ng/µL. The Enzyme Activity Endpoint Assay (purified): scIgG was 226 ng/µL. For B2, the Enzyme Activity Endpoint Assay (purified): Fab′2 was 582 ng/µL, the Enzyme Activity Endpoint Assay (purified): Fc was 435 ng/µL and the Enzyme Activity Endpoint Assay (purified): IgG was 39 ng/µL. For the same protein, the Enzyme Activity Endpoint Assay (purified): scIgG was 635 ng/µL. With B3 the Enzyme Activity Endpoint Assay (purified): Fab′2 was 822 ng/µL, the Enzyme Activity Endpoint Assay (purified): Fc was 473 ng/µL and the Enzyme Activity Endpoint Assay (purified): IgG was 0 ng/µL. The Enzyme Activity Endpoint Assay (purified): scIgG was 317 ng/µL. With B4 the Enzyme Activity Endpoint Assay (purified): Fab′2 was 460 ng/µL, the Enzyme Activity Endpoint Assay (purified): Fc was 216 ng/µL and the Enzyme Activity Endpoint Assay (purified): IgG was 702 ng/µL. It also gave an Enzyme Activity Endpoint Assay (purified): scIgG of 726 ng/µL. Protein B5 has an Enzyme Activity Endpoint Assay (purified): Fab′2 of 187 ng/µL, an Enzyme Activity Endpoint Assay (purified): Fc of 121 ng/µL and an Enzyme Activity Endpoint Assay (purified): IgG of 0 ng/µL. The Enzyme Activity Endpoint Assay (purified): scIgG was 70 ng/µL. B6 gave an Enzyme Activity Endpoint Assay (purified): Fab′2 of 608 ng/µL, an Enzyme Activity Endpoint Assay (purified): Fc of 355 ng/µL and an Enzyme Activity Endpoint Assay (purified): IgG of 0 ng/µL. It also gave an Enzyme Activity Endpoint Assay (purified): scIgG of 252 ng/µL.
